{
  "source": "paper PMC12343972",
  "about": "(Nature Communications, 2025)",
  "binders": {"B1": {"name": "83-mer dsDNA (EMSA) (dsDNA)", "DNA 1": "TTGATAAGAGGTCATTTTTGCGGATGGCTTAGAGCTTAATTGCTGAATCTGGTGCTGTAGCTCAACATGTTTTAAATATGCAA", "DNA 2": "TTGCATATTTAAAACATGTTGAGCTACAGCACCAGATTCAGCAATTAAGCTCTAAGCCATCCGCAAAAATGACCTCTTATCAA"}},
  "key": {"Rad50-3KA": {"molecular_target": "T1, Rad50-3KA (Saccharomyces cerevisiae, UniProt P12753 1-1312, K192A;K195A;K196A)", "T1 sequence": "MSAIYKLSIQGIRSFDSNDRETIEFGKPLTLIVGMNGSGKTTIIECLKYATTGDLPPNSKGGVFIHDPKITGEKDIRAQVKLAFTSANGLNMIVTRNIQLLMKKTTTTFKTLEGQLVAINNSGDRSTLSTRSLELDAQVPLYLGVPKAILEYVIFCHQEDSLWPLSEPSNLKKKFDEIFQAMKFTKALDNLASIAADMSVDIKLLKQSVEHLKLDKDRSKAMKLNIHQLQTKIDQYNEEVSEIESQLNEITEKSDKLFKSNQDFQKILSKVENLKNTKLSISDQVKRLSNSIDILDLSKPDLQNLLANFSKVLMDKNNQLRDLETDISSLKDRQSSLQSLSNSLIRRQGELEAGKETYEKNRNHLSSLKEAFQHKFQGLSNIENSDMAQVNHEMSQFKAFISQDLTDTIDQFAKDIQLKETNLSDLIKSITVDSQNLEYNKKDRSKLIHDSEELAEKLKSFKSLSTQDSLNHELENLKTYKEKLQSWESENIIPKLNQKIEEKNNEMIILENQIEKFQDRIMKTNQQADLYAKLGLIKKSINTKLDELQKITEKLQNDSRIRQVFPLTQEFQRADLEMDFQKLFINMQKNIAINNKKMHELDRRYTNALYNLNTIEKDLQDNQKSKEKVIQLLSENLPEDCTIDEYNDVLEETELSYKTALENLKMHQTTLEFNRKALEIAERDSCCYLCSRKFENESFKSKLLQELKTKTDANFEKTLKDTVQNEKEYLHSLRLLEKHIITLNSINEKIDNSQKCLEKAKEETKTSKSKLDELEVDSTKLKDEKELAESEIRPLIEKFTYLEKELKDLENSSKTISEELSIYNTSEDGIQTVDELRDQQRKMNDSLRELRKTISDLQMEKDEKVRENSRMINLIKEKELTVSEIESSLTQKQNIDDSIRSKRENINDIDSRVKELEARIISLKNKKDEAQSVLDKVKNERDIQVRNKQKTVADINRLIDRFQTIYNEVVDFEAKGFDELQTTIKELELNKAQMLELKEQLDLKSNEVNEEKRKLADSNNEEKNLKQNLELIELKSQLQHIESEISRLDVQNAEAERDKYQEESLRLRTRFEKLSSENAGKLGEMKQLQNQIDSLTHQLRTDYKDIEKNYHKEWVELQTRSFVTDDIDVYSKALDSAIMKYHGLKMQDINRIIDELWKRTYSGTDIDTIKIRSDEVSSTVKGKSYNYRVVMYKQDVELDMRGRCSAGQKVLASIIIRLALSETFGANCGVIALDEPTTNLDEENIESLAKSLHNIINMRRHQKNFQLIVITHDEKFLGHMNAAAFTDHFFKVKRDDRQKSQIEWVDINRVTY", "experiment": "EMSA"}, "Rad50-K60A": {"molecular_target": "T2, Rad50-K60A (Saccharomyces cerevisiae, UniProt P12753 1-1312, K60A)", "T2 sequence": "T1 sequence with K60A, A192K, A195K, A196K", "experiment": "EMSA"}},
  "note": "Positions count from the first letter of the chain named.",
  "data": [
    {"binder": "B1", "values": [
      {"measurement": "binding result", "setting": "Rad50-3KA", "result": "binds"},
      {"measurement": "binding result", "setting": "Rad50-K60A", "result": "binds"}
    ]}
  ]
}
